Target: T1, FLAG-Mdm2 (UniProt Q00987 1-491)
T1 construct: Mdm2, E3 ubiquitin ligase; source: HEK-293, transfected, in nuclear and cytoplasmic fractions
Experiment: co-IP; HEK-293 cells transfected with D2R, GRK2 and FLAG-Mdm2; vehicle or 10 μM dopamine for 2 min; nuclear and cytoplasmic fractions each immunoprecipitated with FLAG beads; blot for GRK2
Conditions: partners not purified

T1 sequence (Q00987 whole entry): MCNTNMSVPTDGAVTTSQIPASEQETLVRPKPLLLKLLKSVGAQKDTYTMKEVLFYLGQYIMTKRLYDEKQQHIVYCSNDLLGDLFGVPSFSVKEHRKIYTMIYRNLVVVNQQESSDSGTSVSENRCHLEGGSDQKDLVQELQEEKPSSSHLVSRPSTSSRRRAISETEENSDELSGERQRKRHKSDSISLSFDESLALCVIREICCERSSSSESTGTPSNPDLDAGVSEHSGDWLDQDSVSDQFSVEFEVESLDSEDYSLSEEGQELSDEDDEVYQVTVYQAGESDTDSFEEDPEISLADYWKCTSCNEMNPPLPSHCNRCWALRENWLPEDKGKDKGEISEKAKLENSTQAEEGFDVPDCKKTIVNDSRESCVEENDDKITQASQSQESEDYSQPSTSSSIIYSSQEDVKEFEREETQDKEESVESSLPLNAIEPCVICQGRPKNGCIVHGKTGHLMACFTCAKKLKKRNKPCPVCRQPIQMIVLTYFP

ratio of band intensities in the blot, DA(+)/CF group against the DA(−)/CF group (1.0): 2.4
B1: GRK2 (enzyme, UniProt P25098 1-689, looked up)
chain: MADLEAVLADVSYLMAMEKSKATPAARASKKILLPEPSIRSVMQKYLEDRGEVTFEKIFSQKLGYLLFRDFCLNHLEEARPLVEFYEEIKKYEKLETEEERVARSREIFDSYIMKELLACSHPFSKSATEHVQGHLGKKQVPPDLFQPYIEEICQNLRGDVFQKFIESDKFTRFCQWKNVELNIHLTMNDFSVHRIIGRGGFGEVYGCRKADTGKMYAMKCLDKKRIKMKQGETLALNERIMLSLVSTGDCPFIVCMSYAFHTPDKLSFILDLMNGGDLHYHLSQHGVFSEADMRFYAAEIILGLEHMHNRFVVYRDLKPANILLDEHGHVRISDLGLACDFSKKKPHASVGTHGYMAPEVLQKGVAYDSSADWFSLGCMLFKLLRGHSPFRQHKTKDKHEIDRMTLTMAVELPDSFSPELRSLLEGLLQRDVNRRLGCLGRGAQEVKESPFFRSLDWQMVFLQKYPPPLIPPRGEVNAADAFDIGSFDEEDTKGIKLLDSDQELYRNFPLTISERWQQEVAETVFDTINAETDRLEARKKAKNKQLGHEEDYALGKDCIMHGYMSKMGNPFLTQWQRRYFYLFPNRLEWRGEGEAPQSLLTMEEIQSVEETQIKERKCLLLKIRGGKQFILQCDSDPELVQWKKELRDAYREAQQLVQRVPKMKNKPRSPVVELSKVPLVQRGSANGL
notes: GPCR kinase 2 (GRK2), plasmid without a named tag; detected with antibodies against GRK2; also called GPCR kinase 2; source: HEK-293, transfected, in nuclear and cytoplasmic fractions
